The target in assay [1] is endophilin SH3 (SH3G2_HUMAN) (UniProt Q99962). The experiment in a line: SPOT array.
Assay [2] addresses amphyphisin SH3 (AMPH_HUMAN) (UniProt P49418). Put plainly: SPOT array.

On to P46781 11-24, for which the normalised SPOT signal, Boehringer light units (BLU); mean over the file's lines of this peptide turned out to be 269 in assay [1] and 245 in assay [2].

The values above are taken from article PMC314469, “Protein Interaction Networks by Proteome Peptide Scanning” (PLoS Biology, 2004).
